The values below come from article PMC10397247.

The target of one assay is T1, 4H48-bN.
T1 chain: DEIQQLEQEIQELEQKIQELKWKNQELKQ
The assay is described as follows: two-hybrid library CCNG1.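 Further: natural log of median RNA to DNA barcode read ratio; higher means stronger binding.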

A further assay has as its target T2, 4H342-bN.
T2 chain: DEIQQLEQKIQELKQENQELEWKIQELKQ
The assay is described as follows: two-hybrid library CCNG1.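 Further: natural log of median RNA to DNA barcode read ratio; higher means stronger binding.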

The target in a further assay is T3, 4H2937-bN.
T3 chain: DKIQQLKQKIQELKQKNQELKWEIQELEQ
The assay is described as follows: two-hybrid library CCNG1.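 Further: natural log of median RNA to DNA barcode read ratio; higher means stronger binding.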

The target in the next assay is T4, 4H2696-bN.
T4 chain: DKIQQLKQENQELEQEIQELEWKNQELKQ
The assay is described as follows: two-hybrid library CCNG1.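 Further: natural log of median RNA to DNA barcode read ratio; higher means stronger binding.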

The next assay concerns the target T5, 4H2883-bN.
T5 chain: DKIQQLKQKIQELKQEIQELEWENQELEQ
The assay is described as follows: two-hybrid library CCNG1.

For another assay, the target named is T6, 4H491-bN.
T6 chain: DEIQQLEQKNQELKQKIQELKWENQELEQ
The assay is described as follows: two-hybrid library CCNG1.

In another assay the target is T7, 4H2944-bN.
T7 chain: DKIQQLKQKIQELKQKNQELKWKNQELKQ
The assay is described as follows: two-hybrid library CCNG1.

Another assay deals with T8, P2-AA.
T8 chain: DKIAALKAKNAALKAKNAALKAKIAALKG
The assay is described as follows: two-hybrid library CCmax. The conditions noted are these: mean of both orientations.

The target of the next assay is T9, P2-AA-1HGe-T.
T9 chain: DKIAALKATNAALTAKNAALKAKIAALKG
The assay is described as follows: two-hybrid library CCmax. The conditions noted are these: mean of both orientations.

The next assay concerns the target T10, P2-AA-1HGe-M.
T10 chain: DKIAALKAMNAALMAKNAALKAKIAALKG
The assay is described as follows: two-hybrid library CCmax. As to conditions: mean of both orientations.

In a further assay the target is T11, P2-AA-1HGe-Q.
T11 chain: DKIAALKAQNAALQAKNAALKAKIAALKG
The assay is described as follows: two-hybrid library CCmax. As to conditions: mean of both orientations.

A further assay addresses T12, P2-AA-1HGe-R.
T12 chain: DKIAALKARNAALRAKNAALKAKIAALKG
The assay is described as follows: two-hybrid library CCmax. As to conditions: mean of both orientations.

The target of the next assay is T13, P2-AA-1HGe-A.
T13 chain: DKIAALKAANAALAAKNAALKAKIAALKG
The assay is described as follows: two-hybrid library CCmax. The conditions noted are these: mean of both orientations.

The next assay concerns the target T14, P2-AA-1HGe-D.
T14 chain: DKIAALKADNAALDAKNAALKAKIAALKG
The assay is described as follows: two-hybrid library CCmax. As to conditions: mean of both orientations.

The target of the next assay is T15, 4H1136-AA.
T15 chain: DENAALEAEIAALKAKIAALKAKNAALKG
The assay is described as follows: two-hybrid library CCmax.

The target in the next assay is 4H_GCN4. The assay is described as follows: two-hybrid library CCmax.
For another assay, the target named is T16, 4H3782-AA.
T16 chain: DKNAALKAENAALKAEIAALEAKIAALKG
The assay is described as follows: two-hybrid library CCmax. The conditions noted are these: mean of both orientations.

The target of the next assay is GCN2_T. The assay is described as follows: two-hybrid library CCmax.
A further assay addresses T17, 4H58-AA.
T17 chain: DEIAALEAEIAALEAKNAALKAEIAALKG
The assay is described as follows: two-hybrid library CCmax. As to conditions: mean of both orientations.

In a further assay the target is T18, 4H486-AA.
T18 chain: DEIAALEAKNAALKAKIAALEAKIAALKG
The assay is described as follows: two-hybrid library CCmax. As to conditions: mean of both orientations.

The target in a further assay is T19, 4H465-AA.
T19 chain: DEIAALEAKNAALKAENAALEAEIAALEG
The assay is described as follows: two-hybrid library CCmax. The conditions noted are these: mean of both orientations.

The target in another assay is T20, 4H_APH.
T20 chain: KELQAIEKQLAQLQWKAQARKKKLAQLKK
The assay is described as follows: two-hybrid library CCmax. The conditions noted are these: mean of both orientations.

A further assay addresses T21, 4H2898-AA.
T21 chain: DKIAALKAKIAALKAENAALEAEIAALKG
The assay is described as follows: two-hybrid library CCmax. The conditions noted are these: mean of both orientations.

The next assay deals with T22, 4H2600-AA.
T22 chain: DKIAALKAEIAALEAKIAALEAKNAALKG
The assay is described as follows: two-hybrid library CCmax. The conditions noted are these: mean of both orientations.

The target in another assay is T23, 4H1802-AA.
T23 chain: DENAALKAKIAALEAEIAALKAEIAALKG
The assay is described as follows: two-hybrid library CCmax. As to conditions: mean of both orientations.

For the next assay, the target named is T24, 4H3651-AA.
T24 chain: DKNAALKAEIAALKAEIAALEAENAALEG
The assay is described as follows: two-hybrid library CCmax. The conditions noted are these: mean of both orientations.

The next assay deals with T25, 4H_BCR.
T25 chain: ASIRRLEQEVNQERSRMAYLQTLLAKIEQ
The assay is described as follows: two-hybrid library CCmax. As to conditions: mean of both orientations.

For a further assay, the target named is T26, 4H3705-AA.
T26 chain: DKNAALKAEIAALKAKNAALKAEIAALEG
The assay is described as follows: two-hybrid library CCmax. The conditions noted are these: mean of both orientations.

The target of the next assay is T27, 4H895-AA.
T27 chain: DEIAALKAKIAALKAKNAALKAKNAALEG
The assay is described as follows: two-hybrid library CCmax. The conditions noted are these: mean of both orientations.

The target in another assay is T28, 4H355-AA.
T28 chain: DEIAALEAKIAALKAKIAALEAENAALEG
The assay is described as follows: two-hybrid library CCmax. The conditions noted are these: mean of both orientations.

A further assay addresses T29, 4H535-AA.
T29 chain: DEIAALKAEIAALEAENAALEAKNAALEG
The assay is described as follows: two-hybrid library CCmax. As to conditions: mean of both orientations.

The target of a further assay is T30, 4H2750-AA.
T30 chain: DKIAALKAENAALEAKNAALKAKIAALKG
The assay is described as follows: two-hybrid library CCmax.

A further assay addresses T31, 4H3020-AA.
T31 chain: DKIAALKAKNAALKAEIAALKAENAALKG
The assay is described as follows: two-hybrid library CCmax. The conditions noted are these: mean of both orientations.

Another assay concerns the target T32, 4H2721-AA.
T32 chain: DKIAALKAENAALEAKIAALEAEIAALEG
The assay is described as follows: two-hybrid library CCmax. As to conditions: mean of both orientations.

A further assay has as its target T33, 4H1257-AA.
T33 chain: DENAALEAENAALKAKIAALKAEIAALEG
The assay is described as follows: two-hybrid library CCmax. As to conditions: mean of both orientations.

The next assay addresses T34, 4H140-AA.
T34 chain: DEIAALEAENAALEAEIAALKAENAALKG
The assay is described as follows: two-hybrid library CCmax. As to conditions: mean of both orientations.

The target in a further assay is T35, 4H3365-AA.
T35 chain: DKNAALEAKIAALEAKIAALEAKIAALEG
The assay is described as follows: two-hybrid library CCmax. As to conditions: mean of both orientations.

Sequence of 4H_GCN4 (chain, as listed by the source): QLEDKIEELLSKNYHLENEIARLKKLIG

Regarding DKIQQLKQENQELEQEIQELEWKNQELKQ [4H2696-bN], the interaction score with 4H48-bN is -1.05; in the assay with 4H342-bN it was -0.885; with 4H2937-bN, 0.131; with 4H2696-bN, -0.134; with 4H2883-bN it was 1.32; with 4H491-bN it was 0.0322. This molecule gave an interaction score with 4H2944-bN of -0.274.

As for DEIAALEAYNAALYAENAALEAEIAALEG [P1-AA-1HGe-Y], the interaction score was determined as 1.87 with P2-AA; 2.08 in the assay with P2-AA-1HGe-T; 1.67 with P2-AA-1HGe-M; 1.96 with P2-AA-1HGe-Q; 2.01 with P2-AA-1HGe-R; 1.65 in the assay with P2-AA-1HGe-A. In the assay with P2-AA-1HGe-D, the interaction score came out at 1.57.

For the molecule DENAALEAEIAALKAKIAALKAKNAALKG [4H1136-AA], the interaction score with 4H1136-AA was -0.12; with 4H_GCN4, -1.83; in the assay with 4H3782-AA it was -0.406; with GCN2_T it was -1.68; with 4H58-AA, -0.193; with 4H486-AA, -0.319. For the same molecule, the interaction score with 4H465-AA is -1.44; with 4H_APH it was -1.64; with 4H2898-AA, -0.29; with 4H2600-AA it was 0.398; with 4H1802-AA, -1.42; in the assay with 4H3651-AA it was 2.2. The interaction score in the assay with 4H_BCR is -1.73; in the assay with 4H3705-AA it was -1.5; with 4H895-AA, -1.31; in the assay with 4H355-AA, 0.718; with 4H535-AA, 1.79; in the assay with 4H2750-AA, -1.46. Also, the interaction score with 4H3020-AA is -1.2; in the assay with 4H2721-AA, -1.15; with 4H1257-AA, 0.673; with 4H140-AA, -1.41; with 4H3365-AA, -1.36.

Take DEIAALEAWNAALWAENAALEAEIAALEG [P1-AA-1HGe-W]: the interaction score in the assay with P2-AA came to 1.7; with P2-AA-1HGe-T, 2.15; in the assay with P2-AA-1HGe-M it was 2.21; with P2-AA-1HGe-Q it was 1.87; with P2-AA-1HGe-R, 1.34; in the assay with P2-AA-1HGe-A, 1.9. The molecule further showed an interaction score in the assay with P2-AA-1HGe-D of 1.27.
